Results: US20240254220A1, “COMBINED THERAPY USING ANTI-CD300C ANTIBODY” (CentricsBio, Inc., priority 2021, published 2024)

Target: T1, CD300c antigen (Homo sapiens, UniProt Q08708)
T1 construct: purchased Sino Biological 11832-H08H
T1 sequence (Q08708 21-183): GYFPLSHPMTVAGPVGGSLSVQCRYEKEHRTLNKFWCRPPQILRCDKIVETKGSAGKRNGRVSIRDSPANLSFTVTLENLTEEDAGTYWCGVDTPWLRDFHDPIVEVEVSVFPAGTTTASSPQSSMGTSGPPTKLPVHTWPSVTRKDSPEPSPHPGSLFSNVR
Test: Binding ELISA of anti-CD300c monoclonal antibodies to CD300c antigen
Conditions: CD300c antigen coated at 8 μg/mL, absorbance 450 nm
Protocol: In order to identify the antigen-binding ability of the anti-CD300c monoclonal antibodies produced in Example 1, binding ELISA was performed. Specifically, a CD300c antigen (11832-H08H, Sino Biological) or a CD300a antigen (12449-H08H, Sino Biological) in a coating buffer (0.1 M sodium carbonate, pH 9.0) was dispensed into an ELISA plate at a concentration of 8 μg/mL per well, followed by incubation at room temperature for 3 hours to allow the antigen to be bound to the plate. The unbound antigens were removed by washing three times using phosphate buffered saline-Tween 20 (PBST), and then 300 μL of PBST supplemented with 5% bovine serum albumin (BSA) was added to each well, followed by incubation at room temperature for 1 hour and then washing using PBST. Then, an anti-CD300c monoclonal antibody was diluted in quadruplicate and added thereto, followed by incubation for 1 hour at room temperature for antigen binding. After 1 hour, washing was performed three times using PBST to remove unbound anti-CD300c monoclonal antibody, and then 4 μg/mL of an antibody for detection (HRP conjugated anti-Fc IgG) was added, followed by incubation again at room temperature for 1 hour. […] Then, 2 N sulfuric acid solution was added to terminate the development reaction, and the absorbance was measured at 450 nm to identify the antibodies specifically binding to the CD300c antigen.

B1: CL8: anti-CD300c monoclonal antibody, VH3VL1 phage library, VH SEQ ID 331, VL SEQ ID 332 (antibody, V domains shown)
VH: EVQLLESGGGLVQPGGSLRLSCAASGFTFSSYAMSWVRQAPGKGLEWVSAISGSGGSTYYADSVKGRFTISRNNSKNTLYLQMNSLRAEDTAVYYCARSGRYADLTSGGQGTLVTVSS
VL: QSVLTQPPSASGTPGQRVTISCSGSNSNIGNNYVSWYQQLPDTPPKLLIYDNNKRPSGVPDRFSGSKSGTSASLAISGLRSEDEADYYCSSYTSSSTVMFGGGTKLTVL
modifications: CL8 Heavy Chain Variable Region; CL8 Light Chain Variable Region
EC50: 49.7 µg/mL
